Assay results: IntAct's records for PubMed 24895401

B1: Ras GTPase-activating-like protein IQG1 (Saccharomyces cerevisiae), Q12280 (parent)
chain: MTAYSGSPSKPGNNNSYLNRYVENLGTNVTPPLRPQSSSKINSSLNIASPSHLKTKTSASNSSATILSKKVESSVSKLKPSLPNKLVGKYTVDLSNYSKIELRYYEFLCRVSEVKIWIEAVIEEALPSEIELCVGDSLRNGVFLAKLTQRINPDLTTVIFPAGDKLQFKHTQNINAFFGLVEHVGVPDSFRFELQDLYNKKNIPQVFETLHILISMINKKWPGKTPALTNVSGQISFTKEEIAACKKAWPRIRDFKSLGTNINTAPASPEEPKEKRSGLIKDFNKFERPNIPVEEILITPRKNITDANCSDFSNTPSPYNEAPKMSNLDVVVEKRKFTPIEPSLLGPTPSLEYSPIKNKSLSYYSPTISKYLTYDTEFYTRRSRAREEDLNYYQTFKYSPSHYSPMRRERMTEEQFLEKVVQLQNICRGVNTRFNLYIQKRLLNLFEQDILRFQACLRGNKFRVLSSMYLPIRRAKIDVPHVEAIQSRIKGSRIRYKYDKLKFTLSRFSCTVELLQAYCRSKLLKTTVNTKLNDIEISHYPLTKLQSYMRASYVRKKVMSLNTKLNDERESIMKFSAIIRGNVVRCSEDAILSAVHDVHKENISKLQSLIRGIFTRSCLASIIYSLGKENCNIIQLSACIRGNAVRHKVQSLFAPENNLSETVHDLQGLVRGILVRYTLDLVDDIVEYNNLALFQAFSRGALVRESLDQKSSFYKRNVRSVIMIQSWIRKSLQRSAYLELLDCPNPSLWAVKKFVHLLNGTATIEEVQNQLESCQASLDSENMKKERLLKSIRQQLNINGVLDKFGLLKDKDHELGISDSTIPKSKYQKYEKLFYMLQVDPSYWKLLYLKEPEFVAKNVYMTFGTVNQRMNDRERSYFTRFVCEMLQNAINEAPSIESFLDNRSQFWQTILQDFLRRESPEFFSIIVPVLDYLSDPVVDFESDPYKIYQEIHGFSSPQHCSPVDDASTKNKFIDNLRCLWHAIEMVAEIYTRKVHTIPVEIRYLCTKIFCYAADKNIEEIDSLRAISSILVNVFVSEYLVNREYYGYKDSNVQKNNQKIDILMKSLATVFEIKNFDGFLDPLNQYANEIKPHIKDVLYNVLVDPEYEQEGDRLIYLDMVSPSPKLELLTEKVLEISGKFEEYLNEFPEADILHDILEKNLDNSSFPRSGRVTLELDASAYRFLVSDDKMRKIYDQVKRAFVYMMQIEDVDTNLYDLSISTILPQDEPNFANFLEQNPKIRDDPMIQKLKPLKYFTLKNVTLKKIHELESTGTFCSSDNKLQNFLNDIANTIKNPNYAIDYVTQEIYITKETLTKISEMNHSLDIELSRLKKHVDHTIKDFQKAKDFSPVHKSKFGNFKNAVKKVQGRERSELQGMKFKWNTKQLYERGVLKTIRGEKLAELTVKVFGSSGPKFPDIIFKISTSDGSRFGIQMIDKRKGPDKRYSDDVDSFSFKDLIKTQVEPKIETWKLFHSNVVVNNSQLLHLIVSFFYKRNAL
partner: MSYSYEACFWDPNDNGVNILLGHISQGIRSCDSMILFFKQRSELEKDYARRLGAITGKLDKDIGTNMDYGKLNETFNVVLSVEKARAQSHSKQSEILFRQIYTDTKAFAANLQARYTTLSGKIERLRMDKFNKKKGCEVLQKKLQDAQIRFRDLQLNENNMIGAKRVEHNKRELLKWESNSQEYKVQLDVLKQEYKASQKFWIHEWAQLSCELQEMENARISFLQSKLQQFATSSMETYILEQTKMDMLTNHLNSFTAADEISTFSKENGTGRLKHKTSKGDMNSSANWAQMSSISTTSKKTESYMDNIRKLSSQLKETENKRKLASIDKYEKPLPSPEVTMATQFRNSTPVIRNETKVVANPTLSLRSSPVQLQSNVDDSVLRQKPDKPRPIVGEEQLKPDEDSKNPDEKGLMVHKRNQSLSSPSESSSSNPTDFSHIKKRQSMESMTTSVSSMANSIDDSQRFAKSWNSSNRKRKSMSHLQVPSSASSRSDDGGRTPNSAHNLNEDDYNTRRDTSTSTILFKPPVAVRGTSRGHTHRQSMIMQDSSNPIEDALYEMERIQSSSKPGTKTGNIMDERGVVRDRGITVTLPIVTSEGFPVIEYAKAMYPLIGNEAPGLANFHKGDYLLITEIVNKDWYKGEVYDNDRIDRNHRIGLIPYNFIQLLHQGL

Variants of: B1
Details: with cyk2_yeast HOF1, Q05080

effect of a mutation on the interaction	Variant
disrupting interaction strength	Q695S
with no effect	Q725S

The remaining lines, values behind:

Variant	effect of a mutation on the interaction
Q667S;Q695S	disrupting interaction strength
Q667S	disrupting interaction strength
